Data on 9 molecules can be found in patent US20140030218A1, “Treatment And Screening” (IMPERIAL INNOVATIONS LIMITED, published 2014).

Sequences and labels used below:
B1: TNF 'ISRE'17 (dsDNA)
DNA 1: AGCTACATAAACAAAGCCCAACAGAATATTCC
DNA 2: AGCTGGAATATTCTGTTGGGCTTTGTTTATGT
B2: One-Strep-IRF5 fusion protein (other)
chain: MNQSIPVAPTPPRRVRLKPWLVAQVNSCQYPGLQWVNGEKKLFCIPWRHATRHGPSQDGDNTIFKAWAKETGKYTEGVDEADPAKWKANLRCALNKSRDFRLIYDGPRDMPPQPYKIYEVCSNGPAPTDSQPPEDYSFGAGEEEEEEEELQRMLPSLSLTEDVKWPPTLQPPTLQPPVVLGPPAPDPSPLAPPPGNPAGFRELLSEVLEPGPLPASLPPAGEQLLPDLLISPHMLPLTDLEIKFQYRGRPPRALTISNPHGCRLFYSQLEATQEQVELFGPISLEQVRFPSPEDIPSDKQRFYTNQLLDVLDRGLILQLQGQDLYAIRLCQCKVFWSGPCASAHDSCPNPIQREVKTKLFSLEHFLNELILFQKGQTNTPPPFEIFFCFGEEWPDRKPREKKLITVQVVPVAARLLLEMFSGELSWSADSIRLQISNPDLKDRMVEQFKELHHIWQSQQRLQPVAQAPPGAGLGVGQGPWPMHPAGMQ
notes: also called full-length IRF5 (One-Strep bait); not shown: One-Strep tag
B3: human IRF5 tagged with one-strep tag (N-terminus) and HA tag (C-terminus) (other)
chain: B2 chain
notes: Expressed in HEK-293-TLR4-CD14/Md2 cells and purified on Strep-Tactin after formaldehyde cross-linking; also called onestrep-IRF5-HA; IRF5 with an N-terminal one-strep tag and a C-terminal HA tag; not shown: N-terminal one-strep tag; C-terminal HA tag
B4: TNF ISRE1 (dsDNA)
DNA 1: AGCTGAAGCCAAGACTGAAACCAGCATTA
DNA 2: AGCTTAATGCTGGTTTCAGTCTTGGCTTC
B5: TNF kB4a (dsDNA)
DNA 1: AGCTAACTCTGGGAATTCCAATCCTT
DNA 2: AGCTAAGGATTGGAATTCCCAGAGTT
B6: p50 (other, UniProt P19838 1-433, looked up)
chain: MAEDDPYLGRPEQMFHLDPSLTHTIFNPEVFQPQMALPTDGPYLQILEQPKQRGFRFRYVCEGPSHGGLPGASSEKNKKSYPQVKICNYVGPAKVIVQLVTNGKNIHLHAHSLVGKHCEDGICTVTAGPKDMVVGFANLGILHVTKKKVFETLEARMTEACIRGYNPGLLVHPDLAYLQAEGGGDRQLGDREKELIRQAALQQTKEMDLSVVRLMFTAFLPDSTGSFTRRLEPVVSDAIYDSKAPNASNLKIVRMDRTAGCVTGGEEIYLLCDKVQKDDIQIRFYEEEENGGVWEGFGDFSPTDVHRQFAIVFKTPKYKDINITKPASVFVQLRRKSDLETSEPKPFLYYPEIKDKEEVQRKRQKLMPNFSDSFGGGSGAGAGGGGMFGSGGGGGGTGSTGPGYSFPHYGFPTYGGITFHPGTTKSNAGMKHG
notes: Endogenous protein in HEK-293 lysate, probed by immunoblot; also called NF-kB p50
B7: TNF kB4b (dsDNA)
DNA 1: AGCTCTTGCTGGGAAAATCCTGCAG
DNA 2: AGCTGCTGCAGGATTTTCCCAGCAAG
B8: TNF 'ISRE'16 (dsDNA)
DNA 1: AGCTTTTGCTTAGAAAAGAAACATGGTCTC
DNA 2: AGCTGAGACCATGTTTCTTTTCTAAGCAAA
B9: p52 (other, UniProt Q00653 1-454, looked up)
chain: MESCYNPGLDGIIEYDDFKLNSSIVEPKEPAPETADGPYLVIVEQPKQRGFRFRYGCEGPSHGGLPGASSEKGRKTYPTVKICNYEGPAKIEVDLVTHSDPPRAHAHSLVGKQCSELGICAVSVGPKDMTAQFNNLGVLHVTKKNMMGTMIQKLQRQRLRSRPQGLTEAEQRELEQEAKELKKVMDLSIVRLRFSAFLRASDGSFSLPLKPVISQPIHDSKSPGASNLKISRMDKTAGSVRGGDEVYLLCDKVQKDDIEVRFYEDDENGWQAFGDFSPTDVHKQYAIVFRTPPYHKMKIERPVTVFLQLKRKRGGDVSDSKQFTYYPLVEDKEEVQRKRRKALPTFSQPFGGGSHMGGGSGGAAGGYGGAGGGGSLGFFPSSLAYSPYQSGAGPMGCYPGGGGGAQMAATVPSRDSGEEAAEPSAPSRTPQCEPQAPEMLQRAREYNARLFGLA
notes: Endogenous protein in HEK-293 lysate, probed by immunoblot; also called NF-kB p52

Data set [1] has as its target T1, IRF5 DBD (aa 1-131) (Homo sapiens, UniProt Q13568 SEQ:1-131). Briefly: EMSA; non-consensus ISRE. The following applies: tags: expressed from pET21d in bacteria; label: 32P (dCTP fill-in); 5' agct overhangs. The method, then: (§1) (A) Recombinant purified IRF5-DBD was used in an EMSA with radioactive probe corresponding to the selected ISRE and κB sites. PRDI-III (IFN-˜ promoter) was used as a positive control.
(§2) Binding reactions with 50 ng of bacterially expressed and purified IRF5 DBD and EMSA gel separation were performed as previously described⁵.
For orientation: In EMSA bound probe runs differently from free probe, usually more slowly.

In data set [2] the target is T2, human RelA containing C-terminal FLAG tag (human, UniProt Q04206 1-551).
T2 construct: Expressed in HEK-293 cells; also called RelA-FLAG; Flag-tagged RelA; not shown: C-terminal FLAG tag
T2 sequence (Q04206 other isoform, or with tags, fused parts or gaps): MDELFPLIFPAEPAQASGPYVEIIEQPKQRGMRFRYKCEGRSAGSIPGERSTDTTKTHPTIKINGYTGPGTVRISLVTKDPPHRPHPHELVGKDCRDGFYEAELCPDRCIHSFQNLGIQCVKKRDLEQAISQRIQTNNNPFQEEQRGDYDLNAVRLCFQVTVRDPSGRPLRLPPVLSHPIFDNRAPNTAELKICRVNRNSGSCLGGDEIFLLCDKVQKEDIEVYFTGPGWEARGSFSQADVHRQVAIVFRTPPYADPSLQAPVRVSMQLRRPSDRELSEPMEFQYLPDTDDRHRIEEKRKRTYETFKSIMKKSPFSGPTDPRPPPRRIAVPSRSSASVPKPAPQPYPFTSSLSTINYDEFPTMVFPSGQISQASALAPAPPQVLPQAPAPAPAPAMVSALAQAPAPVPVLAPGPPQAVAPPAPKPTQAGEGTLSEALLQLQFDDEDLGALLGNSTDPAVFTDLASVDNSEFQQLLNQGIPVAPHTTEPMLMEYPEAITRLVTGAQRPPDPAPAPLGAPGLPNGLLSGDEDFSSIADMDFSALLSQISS
The data set is described as follows: One-Strep affinity purification from co-transfected HEK293-TLR4-CD14/Md2 cells, Western blot. In general terms: A western blot detects proteins with antibodies after separation by electrophoresis.

Data set [3] deals with T3, Rel-B (UniProt Q01201 1-579).
T3 construct: Endogenous protein in HEK-293 lysate, probed by immunoblot
T3 sequence (looked up): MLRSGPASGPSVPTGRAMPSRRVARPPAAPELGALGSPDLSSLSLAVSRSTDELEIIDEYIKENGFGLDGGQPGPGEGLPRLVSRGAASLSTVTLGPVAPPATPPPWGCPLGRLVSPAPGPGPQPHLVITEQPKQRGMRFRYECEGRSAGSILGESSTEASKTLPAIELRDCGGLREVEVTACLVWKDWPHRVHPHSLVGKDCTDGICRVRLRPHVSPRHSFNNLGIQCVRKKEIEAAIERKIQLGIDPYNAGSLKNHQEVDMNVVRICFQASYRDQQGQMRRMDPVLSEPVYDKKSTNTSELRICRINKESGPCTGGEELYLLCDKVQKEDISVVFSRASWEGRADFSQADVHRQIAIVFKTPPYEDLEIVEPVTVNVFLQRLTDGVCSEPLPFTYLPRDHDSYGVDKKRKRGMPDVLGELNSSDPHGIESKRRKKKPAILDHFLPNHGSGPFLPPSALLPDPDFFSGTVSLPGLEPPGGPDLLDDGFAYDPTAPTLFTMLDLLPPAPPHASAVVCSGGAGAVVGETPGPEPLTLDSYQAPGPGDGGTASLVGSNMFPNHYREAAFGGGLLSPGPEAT
The data set is described as follows: Strep-Tactin pull-down of one-strep-IRF5-HA from formaldehyde-cross-linked HEK-293 cells, immunoblot. On the procedure:
(§3) HEK-293-TLR4-CD14/Md2 cells were transfected with onestrep-IRF5-HA construct or corresponding empty vector. 24 hrs post transfection cells were fixed with 1% formaldehyde for 10 minutes at room temperature prior to high salt lysis and affinity purification on Strep-Tactin MacroPrep sepharose (IBA). The eluates were de-crosslinked by incubating at 65° C. overnight prior to separation by SDS-PAGE. Exogenous IRF5 and endogenous RelA were detected by immunoblotting with anti-HA-HRP (12013819001, Roche) and anti-RelA (sc-372, Santa-Cruz, US). Alternatively, cells were transfected with RelA-FLAG or BAP-FLAG control protein. 24 hrs post transfection cells were lysed and affinity purified with anti-FLAG M2 sepharose beads (Sigma, UK). Exogenous RelA and endogenous IRF5 were detected by immunoblotting with anti-FLAG-HRP (A8592, Sigma, UK) and anti-IRF5 (Abcam, UK). Interaction of endogenous RelA and IRF5 was detected by overnight incubation of the cell lysates with goat anti-IRF5 antibody (ab2932, Abcam, UK) or no antibody control prior to precipitation with protein G beads. IRF5 was detected by immunoblotting with mouse anti-IRF5 antibody (sc-56714, Santa-Cruz, USA) while RelA—by immunoblotting with anti-RelA. Triton X-100 extracted nuclei and DNase I digestion of chromatin was performed as described previously¹⁷.
(§4) IRF5 with an N-terminal one-strep tag and a C-terminal HA tag was expressed in HEK-293 cells. […] To determine whether this interaction was specific, we immunoblotted for other NE-κB family members: Rel-B, c-Rel, p50 and p52, or a control protein tubulin. […] Furthermore we conducted a complementary experiment, in which human RelA containing C-terminal FLAG tag was expressed in HEK-293 cells and immunoprecipitated in the absence of a cross-linking agents on anti-FLAG sepharose. Specific interactions between ectopically expressed RelA and endogenous IRF5 were observed. No interaction was detected between a control FLAG-tagged bacterial alkaline phosphatase (BAP) and IRF5 (FIG. 24B, compare lanes 1 and 2).

For data set [4], the target named is T4, c-Rel (UniProt Q04864 2-619, limits assumed).
T4 construct: Endogenous protein in HEK-293 lysate, probed by immunoblot
T4 sequence (looked up): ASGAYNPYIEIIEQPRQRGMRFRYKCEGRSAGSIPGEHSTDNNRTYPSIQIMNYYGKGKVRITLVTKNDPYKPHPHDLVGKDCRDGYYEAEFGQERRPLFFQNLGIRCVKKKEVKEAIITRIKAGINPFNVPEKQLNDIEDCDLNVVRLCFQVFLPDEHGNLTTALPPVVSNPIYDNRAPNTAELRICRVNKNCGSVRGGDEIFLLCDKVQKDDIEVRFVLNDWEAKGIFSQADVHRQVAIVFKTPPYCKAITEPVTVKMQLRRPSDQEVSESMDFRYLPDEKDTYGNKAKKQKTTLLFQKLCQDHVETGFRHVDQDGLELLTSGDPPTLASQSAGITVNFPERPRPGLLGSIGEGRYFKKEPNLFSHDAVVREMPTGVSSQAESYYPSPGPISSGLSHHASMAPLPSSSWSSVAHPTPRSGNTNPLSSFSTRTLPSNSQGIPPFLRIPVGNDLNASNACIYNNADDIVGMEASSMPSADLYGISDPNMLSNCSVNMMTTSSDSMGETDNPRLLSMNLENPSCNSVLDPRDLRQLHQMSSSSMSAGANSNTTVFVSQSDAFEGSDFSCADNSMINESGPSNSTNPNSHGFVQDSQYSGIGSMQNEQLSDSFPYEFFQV
The data set is described as above. The method, then: as §3, §4

Data set [5] deals with T1, IRF5 DBD (aa 1-131). The data set is described as follows: EMSA; 50 ng IRF5 DBD; ISRE 1/2 said to interact in vitro. The following applies: tags: expressed from pET21d in bacteria; label: 32P (dCTP fill-in); 5' agct overhangs. The method, then:
as §1, §2

Data set [6] deals with T1, IRF5 DBD (aa 1-131). The data set is described as follows: EMSA; 50 ng IRF5 DBD. The following applies: tags: expressed from pET21d in bacteria; label: 32P (dCTP fill-in); 5' agct overhangs. On the procedure:
as §1, §2

For data set [7], the target named is B3. The data set is described as follows: Strep-Tactin pull-down of one-strep-IRF5-HA from formaldehyde-cross-linked HEK-293 cells, immunoblot. On the procedure: as §3, §4

For B1, the binding result in data set [1] is given as “no binding”.

For the molecule B2, the binding result in data set [2] is “binds”.

Regarding B3, the binding result in data set [3] and in data set [4] was “no binding” in each case.

As to B4, the binding result in data set [5] was “binds”.

Consider B5, for which the binding result in data set [6] is recorded as “no binding”.

B6: in data set [7], the binding result was “no binding”.

Consider B7, for which, in data set [6], the binding result was “no binding”.

For the molecule B8, the binding result in data set [1] is listed as “no binding”.

As for B9, in data set [7], the binding result is “no binding”.
